Measurements from the supplement of paper PMC7125110.
± gives the standard error. This sample holds only a part of the variants without activity.

B1: glmS ribozyme (parent)
chain: AUAAAAGCGCCAGAACUACAGAAAUGUAGUUGACGAGGAGGAGGUUUAUCGAAUUUUCGGCGGAUGCCUCCAAA

Experiments:
Conditions in all cases: with glucosamine-6-phosphate
glucosamine-6-phosphate [1] = variants of: B1; assay: self-cleavage kobs at 40 uM GlcN6P; higher = faster cleavage; RNA array
Method in brief: (§1)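 Using a hybridised Cy3 probe at 37 °C, barcoded ribozyme variants transcribed in situ by E. coli RNA polymerase on sequenced MiSeq chips were monitored across tiles imaged over ~14 h. The flow contained glucosamine-6-phosphate from 40 μM to 10 mM in HEPES/KCl/Mg(OAc)2 buffer. Signals were normalised to baseline and to non-cleaving reference variants before per-tile medians were fit to one- or two-exponential decays to yield kobs. Weighted Michaelis–Menten fits across concentrations gave kcat and KM.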

glucosamine-6-phosphate [2] = variants of: B1; assay: self-cleavage kobs at 160 uM GlcN6P; higher = faster cleavage; RNA array
Method in brief: as §1

glucosamine-6-phosphate [3] = variants of: B1; assay: self-cleavage kobs at 2500 uM GlcN6P; higher = faster cleavage; RNA array
Method in brief: as §1

glucosamine-6-phosphate [4] = variants of: B1; assay: self-cleavage kobs at 10000 uM GlcN6P; higher = faster cleavage; RNA array
Method in brief: as §1

glucosamine-6-phosphate [5] = variants of: B1; assay: self-cleavage kobs at 640 uM GlcN6P; higher = faster cleavage; RNA array
Method in brief: as §1

| Variant | self-cleavage kobs at 40 uM GlcN6P (glucosamine-6-phosphate [1]) | self-cleavage kobs at 160 uM GlcN6P (glucosamine-6-phosphate [2]) | self-cleavage kobs at 2500 uM GlcN6P (glucosamine-6-phosphate [3]) | self-cleavage kobs at 10000 uM GlcN6P (glucosamine-6-phosphate [4]) | self-cleavage kobs at 640 uM GlcN6P (glucosamine-6-phosphate [5]) |
| --- | --- | --- | --- | --- | --- |
| C16G U49C | < 1e-05 s⁻¹ | < 1e-05 s⁻¹ | < 1e-05 s⁻¹ | < 1e-05 s⁻¹ | – |
| A14C U54A | 0.00014 ± 2.7e-05 s⁻¹ | – | 0.0023 ± 0.0005 s⁻¹ | 0.00985 ± 0.0024 s⁻¹ | 0.00123 ± 0.00021 s⁻¹ |
| A15G U47A C50A | < 1e-05 s⁻¹ | – | – | – | – |
| A14C U46A G59A C68G | < 1e-05 s⁻¹ | – | – | – | – |
| C16A C50G | 0.000251 ± 0.0001 s⁻¹ | 7.18e-05 ± 1.9e-05 s⁻¹ | 5.49e-05 ± 1.1e-05 s⁻¹ | 7.6e-05 ± 3.6e-05 s⁻¹ | 4.7e-05 ± 1.7e-05 s⁻¹ |
| A15G U56G | 0.000419 ± 4.9e-05 s⁻¹ | 0.000989 ± 0.00014 s⁻¹ | 0.00559 ± 0.00073 s⁻¹ | 0.0296 ± 0.0053 s⁻¹ | 0.00325 ± 0.00045 s⁻¹ |
| A14G U31A A52C | < 1e-05 s⁻¹ | – | – | – | – |
| A15C G41U C70A | 0.000696 ± 0.00013 s⁻¹ | – | – | – | – |
| A15G A36C C68G | 6.45e-05 ± 2.9e-05 s⁻¹ | – | – | – | – |
| A15C G38C A52G | < 1e-05 s⁻¹ | – | < 1e-05 s⁻¹ | – | – |
| C16U A36G | < 1e-05 s⁻¹ | < 1e-05 s⁻¹ | – | – | < 1e-05 s⁻¹ |
| C16U U45A | 0.00211 ± 0.00039 s⁻¹ | – | 0.0183 ± 0.0057 s⁻¹ | 0.0689 ± 0.015 s⁻¹ | 0.0159 ± 0.003 s⁻¹ |
| C16U G63C | < 1e-05 s⁻¹ | – | – | < 1e-05 s⁻¹ | < 1e-05 s⁻¹ |
| A14U A39C U49A | < 1e-05 s⁻¹ | – | – | – | – |
| G13U U57G | < 1e-05 s⁻¹ | – | – | – | – |
| A15C U49A | < 1e-05 s⁻¹ | – | – | < 1e-05 s⁻¹ | < 1e-05 s⁻¹ |
| A14G U69C C70U | 0.000104 ± 3.2e-05 s⁻¹ | – | – | 0.00316 ± 0.00074 s⁻¹ | – |
| C16U C50G | 4.26e-05 ± 1.3e-05 s⁻¹ | 3.28e-05 ± 1.4e-05 s⁻¹ | – | – | 4.35e-05 ± 1.3e-05 s⁻¹ |
| A14G U31G G40A C71A | 5.41e-05 ± 1.8e-05 s⁻¹ | – | – | 0.000822 ± 0.00016 s⁻¹ | – |
| A15U G29U C71G | 6.19e-05 ± 2.4e-05 s⁻¹ | – | – | 0.000144 ± 2.7e-05 s⁻¹ | – |
| C16G U31C G37C A53G | < 1e-05 s⁻¹ | – | – | – | – |
| C16U A33U C68A | < 1e-05 s⁻¹ | < 1e-05 s⁻¹ | – | – | – |
| A14C U56G | 0.00282 ± 0.00046 s⁻¹ | 0.00922 ± 0.003 s⁻¹ | 0.00838 ± 0.0029 s⁻¹ | 0.0693 ± 0.022 s⁻¹ | 0.0201 ± 0.0065 s⁻¹ |
| A14C G35U G43C | < 1e-05 s⁻¹ | – | – | – | – |
| A14U G32C U45A U47G | < 1e-05 s⁻¹ | – | – | 3.36e-05 ± 1.4e-05 s⁻¹ | – |
| A15G G38A A42G | < 1e-05 s⁻¹ | < 1e-05 s⁻¹ | – | – | < 1e-05 s⁻¹ |
